{
  "source": "patent US20230121197A1",
  "about": "“ANTIBODIES SPECIFICALLY BINDING THE CARBOXYMETHYLATED CATALYTIC SUBUNIT OF PROTEIN PHOSPHATASE 2A” (Medizinische Universität Wien, priority 2020, published 2023)",
  "biological_target": "T1, HA-PP6c (Mus musculus, UniProt Q9CQR6)",
  "T1 construct": "expressed in transfected cells; host or cells: NIH3T3 mouse fibroblasts, retroviral pBabe hygro HA-PP6c",
  "T1 sequence (Q9CQR6 1-305)": "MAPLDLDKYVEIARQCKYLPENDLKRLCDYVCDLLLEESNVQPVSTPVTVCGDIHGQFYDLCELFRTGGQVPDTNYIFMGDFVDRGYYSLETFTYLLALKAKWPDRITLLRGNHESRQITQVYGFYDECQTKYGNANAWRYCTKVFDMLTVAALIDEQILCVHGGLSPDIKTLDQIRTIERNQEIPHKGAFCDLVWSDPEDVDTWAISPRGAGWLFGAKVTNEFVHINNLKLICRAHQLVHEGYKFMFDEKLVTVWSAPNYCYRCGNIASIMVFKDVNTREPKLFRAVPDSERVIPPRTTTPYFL",
  "assay": "Immunoblotting of anti-HA immunoprecipitates of NIH3T3 cells, PP6c",
  "format": "binding",
  "text": "The catalytic subunits of protein phosphatase 4 (PP4c) and 6 (PP6c) are closely related to PP2Ac with approximately 50% sequence identity. PP2Ac, PP4c and PP6c share the C-terminal DYFL or YFL motif, respectively (FIG. 8A). Therefore, a potential cross-reactivity of 7C10-C5 with α-carboxymethylated PP4c and/or PP6c was examined and compared to another anti-carboxymethyl-PP2Ac antibody 2A10. 2A10 is a carboxymethyl-PP2Ac specific antibody that has been raised against a larger C-terminal PP2Ac peptide (amino acids 302-309, carboxymethylated Leu^309) and that has been shown before to cross-react with α-carboxymethylated PP4c (Lee (2014), Biochem Biophys Res Commun 452, 42-47). HA tagged human PP2Ac a, mouse HA PP4c or mouse HA PP6c from NIH3T3 mouse fibroblasts stably expressing these HA-tagged proteins were immunoprecipitated. The precipitated proteins were then analyzed by immunoblotting with anti-carboxymethyl-PP2Ac antibodies 7C10-C5 or 2A10.\nSpecifically, 500 μl corresponding to 1 mg of whole cell protein lysates of NIH3T3 mouse fibroblasts were incubated with anti-hemagglutinin (HA) antibody (clone 12CA5) crosslinked to BSA-coated protein A-Sepharose beads (GE-Healthcare) to immunoprecipitate HA-epitope tagged PP2Ac, PP4c or PP6c for 1 h. […]",
  "data": [
    {"molecule": "7C10-C5: α-carboxymethylation specific mouse monoclonal IgG1 antibody from single clone hybridoma 7C10-C5 (DSM ACC3350) (antibody, Amino acid sequence of the recombinant 7C10-C5 heavy chain; Amino acid sequence of the recombinant 7C10-C5 light chain) heavy: MYRMQLLSCIALSLALVTNSDVQLQESGPGLVKPSQSLSLTCSVTGYSITSGYYWNWIRQFPGNKLEWMGYISYDGSNNYNPSLKNRISITRDTSKNQFFLKLNSVTTEDTATYYCAGRFAYWGQGTLVTVSAAKTTAPSVYPLAPVCGDTTGSSVTLGCLVKGYFPEPVTLTWNSGSLSSGVHTFPAVLQSDLYTLSSSVTVTSSTWPSQSITCNVAHPASSTKVDKKIEPRGPTIKPCPPCKCPAPNLLGGPSVFIFPPKIKDVLMISLSPIVTCVVVDVSEDDPDVQISWFVNNVEVHTAQTQTHREDYNSTLRVVSALPIQHQDWMSGKEFKCKVNNKDLPAPIERTISKPKGSVRAPQVYVLPPPEEEMTKKQVTLTCMVTDFMPEDIYVEWTNNGKTELNYKNTEPVLDSDGSYFMYSKLRVEKKNWVERNSYSCSVVHEGLHNHHTTKSFSRTPGK light: MDMRVPAQLLGLLLLWLSGARCDVLMTQTPLSLPVSLGDQASISCRSSQSIVHSNGNTYLEWYLQKPGQSPKLLIYKVSNRFSGVPDRFSGSGSGTDFTLKINRVEAEDLGVYYCFQGSHVPWTFGGGTKLEIKADAAPTVSIFPPSSEQLTSGGASVVCFLNNFYPKDINVKWKIDGSERQNGVLNSWTDQDSKDSTYSMSSTLTLTKDEYERHNSYTCEATHKTSTSPIVKSFNRNEC", "values": [
      {"measurement": "detection of PP6c", "setting": "Western blot of HA immunoprecipitates", "result": "did not detect"},
      {"measurement": "binding to carboxymethylated PP2Ac stronger than to carboxymethylated PP6c", "setting": "Western blot, suggested since no discernable signal", "result": "100-fold or even 500-fold"}
    ]}
  ]
}
